Reference: the supplement of paper PMC7125110
± gives the standard error. For some assays here: This sample holds only a part of the variants without activity.

B1: glmS ribozyme (parent)
chain: AUAAAAGCGCCAGAACUACAGAAAUGUAGUUGACGAGGAGGAGGUUUAUCGAAUUUUCGGCGGAUGCCUCCAAA

How the values were obtained:
Conditions in all cases: with glucosamine-6-phosphate
glucosamine-6-phosphate [1] = variants of: B1; assay: kcat; higher = faster cleavage; RNA array
How it was run: (§1)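 The measurements used barcoded ribozyme variants on sequenced MiSeq chips, transcribed in situ by E. coli RNA polymerase and tracked at 37 °C with a hybridised Cy3 probe. Glucosamine-6-phosphate, 40 μM to 10 mM in HEPES/KCl/Mg(OAc)2 buffer, was flowed in while tiles were imaged over ~14 h. Baseline-normalised signals, also normalised to non-cleaving reference variants, gave per-tile medians that were fit to one- or two-exponential decays for kobs. kcat and KM resulted from weighted Michaelis–Menten fits across concentrations.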

glucosamine-6-phosphate [2] = variants of: B1; assay: self-cleavage kobs at 160 uM GlcN6P; higher = faster cleavage; RNA array
How it was run: as §1

glucosamine-6-phosphate [3] = variants of: B1; assay: self-cleavage kobs at 640 uM GlcN6P; higher = faster cleavage; RNA array
How it was run: as §1

glucosamine-6-phosphate [4] = variants of: B1; assay: self-cleavage kobs at 2500 uM GlcN6P; higher = faster cleavage; RNA array
How it was run: as §1

glucosamine-6-phosphate [5] = variants of: B1; assay: self-cleavage kobs at 10000 uM GlcN6P; higher = faster cleavage; RNA array
How it was run: as §1

glucosamine-6-phosphate [6] = variants of: B1; assay: self-cleavage kobs at 40 uM GlcN6P; higher = faster cleavage; RNA array
How it was run: as §1

glucosamine-6-phosphate [7] = variants of: B1; assay: KM; higher = weaker cofactor use; RNA array
How it was run: as §1

Row | Variant | kcat (glucosamine-6-phosphate [1]) | self-cleavage kobs at 160 uM GlcN6P (glucosamine-6-phosphate [2]) | self-cleavage kobs at 640 uM GlcN6P (glucosamine-6-phosphate [3]) | self-cleavage kobs at 2500 uM GlcN6P (glucosamine-6-phosphate [4]) | self-cleavage kobs at 10000 uM GlcN6P (glucosamine-6-phosphate [5]) | self-cleavage kobs at 40 uM GlcN6P (glucosamine-6-phosphate [6]) | KM (glucosamine-6-phosphate [7])
1 | U54A U69A | 0.00011 ± 2.2e-05 s⁻¹ | 0.000107 ± 1.5e-05 s⁻¹ | 0.000109 ± 1.9e-05 s⁻¹ | 0.000141 ± 2.3e-05 s⁻¹ | 8.28e-05 ± 1.5e-05 s⁻¹ | – | –
2 | G59A C68A | < 1e-05 s⁻¹ | – | – | – | – | < 1e-05 s⁻¹ | –
3 | G59A C68G | 1.72e-05 ± 2.3e-06 s⁻¹ | – | – | – | – | – | –
4 | G59A C68U | 1.6e-05 ± 1.4e-06 s⁻¹ | – | – | – | – | – | –
5 | U57G G66A | 2.15e-05 ± 3.2e-06 s⁻¹ | – | – | – | – | < 1e-05 s⁻¹ | –
6 | U56C G66A | 0.00312 ± 0.0012 s⁻¹ | 8.16e-05 ± 1.9e-05 s⁻¹ | 0.000501 ± 8.4e-05 s⁻¹ | 0.00117 ± 0.00022 s⁻¹ | 0.0022 ± 0.00026 s⁻¹ | 6.93e-05 ± 1.3e-05 s⁻¹ | –
7 | U57C C68A | 1.48e-05 ± 1.3e-06 s⁻¹ | – | – | – | < 1e-05 s⁻¹ | – | 184 ± 90 µM
8 | U57C C68U | 6e-05 ± 5.6e-07 s⁻¹ | – | – | 3.96e-05 ± 1.4e-05 s⁻¹ | 5.36e-05 ± 6e-06 s⁻¹ | – | 1210 ± 64 µM
9 | U54C C58G | 5.26e-05 ± 4.8e-06 s⁻¹ | – | – | – | 3.05e-05 ± 1.2e-05 s⁻¹ | – | 7250 ± 1300 µM
10 | C61U C70U | 3.98e-05 ± 5.3e-06 s⁻¹ | – | – | 3.31e-05 ± 1e-05 s⁻¹ | 3.47e-05 ± 6e-06 s⁻¹ | – | –
11 | C61A C68G | 1.96e-05 ± 3.4e-06 s⁻¹ | – | – | – | – | – | –
12 | C61A C68U | 1.56e-05 ± 2e-06 s⁻¹ | – | – | – | – | – | –
13 | G59A C71U | 6.15e-05 ± 1.4e-06 s⁻¹ | – | – | 4.05e-05 ± 7.8e-06 s⁻¹ | 5.51e-05 ± 6.9e-06 s⁻¹ | < 1e-05 s⁻¹ | 1210 ± 130 µM
14 | U55C U69A | 1.74e-05 ± 6.8e-06 s⁻¹ | – | – | – | – | – | –
15 | U54G A64U | 9.79e-05 ± 1.5e-05 s⁻¹ | – | 1.94e-05 ± 7.4e-06 s⁻¹ | 7.47e-05 ± 9.1e-06 s⁻¹ | 8.01e-05 ± 8e-06 s⁻¹ | – | –
16 | U55A G66A | 0.0303 ± 0.014 s⁻¹ | 0.00137 ± 0.0003 s⁻¹ | 0.00563 ± 0.00082 s⁻¹ | 0.015 ± 0.0035 s⁻¹ | 0.0286 ± 0.0061 s⁻¹ | 0.000654 ± 7.1e-05 s⁻¹ | –
17 | U56G C71G | 0.000632 ± 0.00018 s⁻¹ | 0.00014 ± 2.1e-05 s⁻¹ | 0.000271 ± 4.6e-05 s⁻¹ | 0.000512 ± 0.0001 s⁻¹ | 0.000942 ± 0.00021 s⁻¹ | 6.71e-05 ± 1.8e-05 s⁻¹ | –
18 | G60A C70G | 1.99e-05 ± 7.1e-06 s⁻¹ | – | – | – | – | – | –
19 | G60A C70U | 3.47e-05 ± 4e-06 s⁻¹ | – | – | 1.93e-05 ± 9.2e-06 s⁻¹ | 3.02e-05 ± 6.5e-06 s⁻¹ | < 1e-05 s⁻¹ | –

Row | Variant | kcat (glucosamine-6-phosphate [1]) | self-cleavage kobs at 160 uM GlcN6P (glucosamine-6-phosphate [2]) | self-cleavage kobs at 640 uM GlcN6P (glucosamine-6-phosphate [3]) | self-cleavage kobs at 2500 uM GlcN6P (glucosamine-6-phosphate [4]) | self-cleavage kobs at 10000 uM GlcN6P (glucosamine-6-phosphate [5]) | self-cleavage kobs at 40 uM GlcN6P (glucosamine-6-phosphate [6]) | KM (glucosamine-6-phosphate [7])
20 | U55G U56G | 0.0156 ± 0.0072 s⁻¹ | 0.000797 ± 0.00014 s⁻¹ | 0.00307 ± 0.00039 s⁻¹ | 0.00561 ± 0.00078 s⁻¹ | 0.0215 ± 0.0038 s⁻¹ | 0.000205 ± 3e-05 s⁻¹ | –
21 | U54A U55A | 0.044 ± 0.016 s⁻¹ | 0.00297 ± 0.001 s⁻¹ | – | – | 0.0388 ± 0.0094 s⁻¹ | 0.00147 ± 0.00017 s⁻¹ | 1290 ± 540 µM
22 | U54C A64C | 0.000257 ± 3.3e-05 s⁻¹ | – | 3.19e-05 ± 1e-05 s⁻¹ | 0.000124 ± 2e-05 s⁻¹ | 0.000185 ± 2.1e-05 s⁻¹ | – | 3560 ± 1000 µM
23 | U55C G62C | 1.58e-05 ± 2.1e-06 s⁻¹ | – | – | – | – | – | 1220 ± 460 µM
24 | U56G C70A | 4.56e-05 ± 9.3e-06 s⁻¹ | 3.41e-05 ± 1.7e-05 s⁻¹ | 7.43e-05 ± 3e-05 s⁻¹ | 6.95e-05 ± 1.6e-05 s⁻¹ | 3.66e-05 ± 8.6e-06 s⁻¹ | – | –
25 | U56G C70G | 9.25e-05 ± 3.2e-06 s⁻¹ | 6.12e-05 ± 1e-05 s⁻¹ | 8.21e-05 ± 8.7e-06 s⁻¹ | 9.14e-05 ± 1.1e-05 s⁻¹ | 9.54e-05 ± 9.8e-06 s⁻¹ | 4.14e-05 ± 9.7e-06 s⁻¹ | 61.4 ± 13 µM
26 | C58A G62A | < 1e-05 s⁻¹ | – | < 1e-05 s⁻¹ | – | – | < 1e-05 s⁻¹ | –
27 | U56G C67G | 0.000876 ± 9.7e-05 s⁻¹ | 9.74e-05 ± 8.1e-06 s⁻¹ | 0.00028 ± 2.1e-05 s⁻¹ | 0.000582 ± 5.1e-05 s⁻¹ | 0.00081 ± 7.6e-05 s⁻¹ | 3.84e-05 ± 5.8e-06 s⁻¹ | 1260 ± 220 µM
28 | U54G U56A G63C | < 1e-05 s⁻¹ | < 1e-05 s⁻¹ | – | – | – | < 1e-05 s⁻¹ | –
29 | C58A G66A | 0.000322 ± 5.8e-05 s⁻¹ | – | 4.87e-05 ± 1e-05 s⁻¹ | 9.9e-05 ± 1.6e-05 s⁻¹ | 0.000228 ± 2.8e-05 s⁻¹ | – | 4640 ± 1500 µM
30 | U55G G59C | 1.2e-05 ± 2.5e-06 s⁻¹ | – | – | – | – | – | –
31 | U54C G66U | 0.0027 ± 0.00084 s⁻¹ | 0.000108 ± 2.3e-05 s⁻¹ | 0.000359 ± 6.3e-05 s⁻¹ | 0.00132 ± 0.0002 s⁻¹ | 0.00199 ± 0.00024 s⁻¹ | 6.62e-05 ± 1.2e-05 s⁻¹ | 3380 ± 1600 µM
32 | U55G C58A | 0.000783 ± 0.00021 s⁻¹ | 2.76e-05 ± 1.3e-05 s⁻¹ | 6.45e-05 ± 1e-05 s⁻¹ | 0.000177 ± 2.2e-05 s⁻¹ | 0.000461 ± 6.3e-05 s⁻¹ | – | 7730 ± 3000 µM
33 | C58U U69G | 4.53e-05 ± 1.7e-05 s⁻¹ | 5.15e-05 ± 1.5e-05 s⁻¹ | 6.7e-05 ± 1.6e-05 s⁻¹ | 7.55e-05 ± 1.9e-05 s⁻¹ | – | 2.63e-05 ± 1.1e-05 s⁻¹ | –
34 | G62A C71G | 1.44e-05 ± 2.8e-06 s⁻¹ | – | – | – | – | – | –
35 | U55A U69A | 9.24e-05 ± 1e-05 s⁻¹ | 9.45e-05 ± 2.4e-05 s⁻¹ | 9.88e-05 ± 1.9e-05 s⁻¹ | 7.93e-05 ± 1.3e-05 s⁻¹ | 0.000129 ± 2.7e-05 s⁻¹ | 7.99e-05 ± 1.9e-05 s⁻¹ | –
36 | U54G U57G | 3.71e-05 ± 3.7e-06 s⁻¹ | – | – | – | 3.21e-05 ± 1.2e-05 s⁻¹ | – | 1500 ± 710 µM
37 | U54G U57A | 0.000134 ± 2.6e-05 s⁻¹ | – | 3.49e-05 ± 1.2e-05 s⁻¹ | 0.000118 ± 3.3e-05 s⁻¹ | 0.00011 ± 2.1e-05 s⁻¹ | – | 1540 ± 760 µM
38 | U55A A64U | 0.000202 ± 3.2e-05 s⁻¹ | – | – | 7.6e-05 ± 1.1e-05 s⁻¹ | 0.000138 ± 1.5e-05 s⁻¹ | < 1e-05 s⁻¹ | 4540 ± 1600 µM
